Results on six molecules are retold here after patent US9664676B2, “RNA sequences that induce fluorescence of small molecule fluorophores” (Cornell University, priority 2013, dated 2017).

For series [1] the following is noted: taken from Song et al.; cited from earlier work.
Series [2] relates to (CGG)60-Spinach2 foci. Kind of series: Effects of drugs on CGG RNA foci in COS-7 cells expressing (CGG)60-Spinach2. Format: cell-based. As for the experimental part: Transfection of COS-7 Cells and Live Cell Imaging: COS-7 cells (ATCC-CRL-1651) were cultured and passaged in DMEM supplemented with 50 units of penicillin and 50 μg of streptomycin per milliliter. For imaging experiments, cells were grown on cells cultured on 24-well glass-bottom dishes and transfected with 0.6 μg of pCDNA-60CGG-Spinach or pCDNA-60CGG-Spinach2 using FuGeneHD (Roche) per the manufacturer's instructions in DMEM medium lacking penicillin and streptomycin. Cells were imaged in CO2-independent medium (Invitrogen) supplemented with L-glutamine. At 30 min-1 h before imaging, medium was supplemented with 25 mM HEPES, 5 mM MgSO4, 1 μg/ml Hoechst 33342 (when appropriate) and 20 μM DFHBI or vehicle. Live fluorescence images were acquired in a temperature-controlled chamber at 35-37° C. with a CoolSnap HQ2 CCD camera through a 60× oil objective (Plan Apo 1.4 numerical aperture (NA)) mounted on a Nikon TE2000 epifluorescence microscope and analyzed with the NIS-Elements software. Spinach was imaged with a filter cube typically used for fluorescein or EGFP, with a sputter-coated excitation filter 470/40 nm, dichroic mirror 495 nm (long-pass), and emission filter 525/50 (Chroma Technology). DsRed-Max and mCherry were imaged using a filter cube typically used for Texas Red, with a sputter coated excitation filter 560/40 nm and emission filter 630/75 nm (Chroma Technology). Background intensity was subtracted from all pixel intensity measurements. Image analyses were completed with NIS-Elements AR 3.2 (Nikon). Drug treatments were carried out as specified. Tautomycin was used at a final concentration of 5 μM in all cases. 1a was used at a final concentration 20 μM in all cases. DMSO was added to a final concentration of 0.1% for vehicle treatments.

A short description of series [3]: Thermostability measurements of Spinach RNAs with DFHBI. The format is physicochemical. The conditions noted are these: fluorescence of RNA-DFHBI complex in vitro, 20-60 °C; ±s.e.m. As for the experimental part: Thermostability Measurements: Spinach or Spinach2 (1 μM) was incubated in 20 mM HEPES pH 7.4, 100 mM KCl, 1 mM MgCl2 and 10 μM DFHBI. Fluorescence values were recorded in 1° C. increments from 20° C. to 60° C., with a 5-min incubation at each temperature to allow for equilibration. Fluorescence measurements were performed using a PerkinElmer LS-55 fluorescence spectrometer using the following instrument parameters: excitation wavelength, 460 nm; emission wavelength, 501 nm; slit widths, 10 nm. Curves were fitted using the Boltzmann sigmoidal equation in GraphPad Prism 5 software. Values presented are mean and s.e.m. from three independent measurements.

A short description of series [4]: In vitro fluorescence (brightness) of Spinach RNAs, mutants and flanked/fused constructs with DFHBI. Format: biochemical. The conditions noted are these: for Percent Brightness (at 42° C.): percent of signal remaining at 42 °C for a given mutant; for Relative Brightness (at 25° C.): relative to Spinach. An excerpt:
Preparation and Analysis of Spinach and Spinach Mutants: RNAs were created by using the appropriate single-stranded DNA templates (Integrated DNA Technologies) and PCR amplification using primers that included a 5′ T7 promoter sequence to generate double-stranded DNA templates. PCR products were then purified with PCR purification columns (Qiagen) and used as templates for in vitro T7 transcription reactions (Epicentre) as described previously (Paige et al., “RNA mimics of green fluorescent protein,” Science 333: 642-646 (2011), which is hereby incorporated by reference in its entirety). RNA was purified using ammonium acetate precipitation, and quantified using both absorbance values and the Riboquant Assay kit (BD Biosciences). Photophysical characterization of Spinach2 was carried out as previously described (Paige et al., “RNA mimics of green fluorescent protein,” Science 333: 642-646 (2011), which is hereby incorporated by reference in its entirety).
Preparation and In Vitro Analysis of Flanked Spinach and Spinach2 Constructs: Spinach and Spinach2 constructs flanked on either side by 50 base pairs were generated by PCR. For Spinach, the following primers were used:
The 50-base-pair sequences were taken from the human β-actin 3′ untranslated region. Both forward primers encode the T7 RNA polymerase promoter for in vitro transcription. 5S-Spinach and 5S-Spinach2 were amplified by PCR from pAV-5S-Spinach and pAV-5S-Spinach2, respectively, using the following primers: […]
PCR products were used as templates for in vitro transcription by Ampliscribe T7 RNA polymerase as previously described (Paige et al., “RNA mimics of green fluorescent protein,” Science 333: 642-646 (2011), which is hereby incorporated by reference in its entirety). Fluorescence measurements were recorded for 0.1 μM RNA in the presence of 10 μM DFHBI in buffer composed of 20 mM HEPES pH 7.4, 100 mM KCl and […] as described above.
Next, systematic mutagenesis was carried out to identify thermostable Spinach mutants with improved folding. Because elevated G+C content can lead to stable misfolded structures (Kiliszek et al., “Crystal Structures of CGG RNA Repeats with Implications for Fragile X-Associated Tremor Attaxia Syndrome,” Nuc. Acids Res. 39:7308-7315 (2011); Sobczak et al., “RNA Structure of Trinucleotide Repeats Associated with Human Neurological Diseases,” Nuc. Acids Res. 31:5469-5482 (2003), each of which is hereby incorporated by reference in its entirety), it was reasoned that decreasing the overall G+C content could promote proper folding. Scanning mutagenesis was carried out, mutating every […] and cytosine to adenosine or uracil, respectively. In regions where G and C residues were predicted to form a base pair, both residues were mutated to A and U, to maintain the complementarity. Each of these 35 mutants was synthesized in vitro, and the fraction folded was measured at 25° C. and 42° C. Fluorescence signals that were equal to or greater than Spinach at 25° C. indicated equal or greater percent folded. A higher percentage signal at 42° C. indicated improved thermostability relative to Spinach.

Series [5] can be described thus: Folding assay (fraction of RNA folded, DFHBI). Format: physicochemical. As for the experimental part:
Folding Assay: The folding assay involves measurement of fluorescence under two conditions, one in which RNA is in excess relative to DFHBI, and one in which the DFHBI is in excess relative to RNA. As Spinach and DFHBI form a 1:1 stoichiometric complex, the maximum amount of complex that can be formed is determined by the limiting component. In the first condition, the fluorescence was determined by incubation of 0.1 μM DFHBI and 100-fold excess (10 μM) Spinach. This value was used to define the fluorescence of 0.1 μM Spinach-DFHBI complex. It was assumed that even if nearly all Spinach is misfolded or unfolded, there will be enough properly folded Spinach to stoichiometrically bind 0.1 μM DFHBI. This was confirmed by measuring fluorescence after doubling the RNA to 20 μM, which caused no increase in fluorescence. In the second condition, the fluorescence obtained using 10 μM DFHBI and 0.1 μM Spinach was measured. In theory, up to 0.1 μM Spinach-DFHBI can form if all the Spinach is folded. However, if a portion of Spinach is unfolded, the fluorescence will be proportionately less than the fluorescence of 0.1 μM Spinach-DFHBI. Thus, this approach can reveal the fraction of Spinach that is folded under diverse conditions.
Fluorescence was measured for each RNA under the following conditions: (i) 0.1 μM RNA and 10 μM DFHBI, and (ii) 0.1 μM DFHBI and 10 μM RNA. For each condition, the signal from DFHBI without RNA was subtracted from each signal. Fluorescence was measured in 20 mM HEPES pH 7.4, 100 mM KCl and 1 mM MgCl2 at the designated temperature. Fluorescence measurements were performed using a PerkinElmer LS-55 fluorescence spectrometer using the following instrument parameters: excitation wavelength, 460 nm; emission wavelength, 501 nm; slit widths, 10 nm. Signal from the first condition (limiting RNA) was divided by the signal from the second condition (limiting dye) to determine the fraction folded.

As to `CC1=N/C(=C\c2cc(F)c(O)c(F)c2)C(=O)N1CC(F)(F)F` [DFHBI-1T], in series [1], the Abs max is given as 423 nm, the Brightness was 0.12, the Em max is 495 nm and the Ex max is reported as 426 nm. Besides, in series [1], the Ext. coeff. is given as 35,400 M^−1cm^−1 and the Quantum yield is listed as 0.00098.
Regarding `C=C1[C@@H](O)[C@@H]2O[C@]3(CC[C@H](/C=C/[C@@H](C)[C@@H]4CC(C)=C[C@@]5(O[C@H](C[C@@](C)(O)C(=O)O)CC[C@H]5O)O4)O3)CC[C@H]2O[C@@H]1[C@@H](O)C[C@H](C)[C@H]1O[C@@]2(CCCCO2)CC[C@H]1C` [okadaic acid], the “disruption of existing foci” value in series [2] (1a: imaging every 5 min for 2 h, okadaic acid: over 4 h) is recorded as “No disruption of foci”.
On to `CO[C@H]([C@H](O)CC(=O)[C@@H](C)[C@@H](O)CC[C@@H](C)[C@@H]1O[C@]2(CC[C@@H](C)[C@H](CC[C@H](C)C(C)=O)O2)CC[C@@H]1C)[C@H](OC(=O)C[C@@H](O)C1=C(C)C(=O)OC1=O)C(C)C` [tautomycin], for which the “time to disaggregation of existing foci” value in series [2] (5 μM) amounted to 1 h. Besides, in series [2] (20 μM 1a or 5 μM tautomycin), the “effect on formation of (CGG)60-Spinach2 foci” value is on record as “prevented formation of (CGG)60-Spinach2 foci”. This molecule displayed a nuclei containing foci in series [2] (24 h treatment, 20 μM 1a or 5 μM tautomycin, ±s.e.m.) of 12±4.2%.

B1: Spinach1.1: Spinach mutant with perfect complementarity in stem 1, SEQ ID NO: 30 (nucleic acid)
chain: GACGCGACCGAATGAAATGGTGAAGGACGGGTCCAGGTGTGGCTGCTTCGGCAGTGCAGCTTGTTGAGTAGAGTGTGAGCTCCGTAACTGGTCGCGTC
modifications: listed as DNA, chemistry not given here
As to B1, the “melting temperature (Tm)” value in series [3] was 35±0.5 °C. For the same molecule, in series [4] (1 μM RNA, 10 μM DFHBI, 25 °C), the “brightness compared to Spinach” value is recorded as “as bright as Spinach”.

B2: Spinach: RNA aptamer binding DFHBI, SEQ ID NO: 1 (nucleic acid)
chain: GACGCAACUGAAUGAAAUGGUGAAGGACGGGUCCAGGUGUGGCUGCUUCGGCAGUGCAGCUUGUUGAGUAGAGUGUGAGCUCCGUAACUAGUCGCGUC
modifications: listed as RNA, chemistry not given here
Consider B2, for which, in series [3], the “melting temperature (Tm)” value turned out to be 34±0.6 °C. Besides, the percentage folded in series [5] (25 °C, in the presence of the tRNA (tRNA^Lys3 scaffold)) is reported as 50±3.9%; in series [5] (25 °C, no tRNA scaffold) it was 32±4.2%; in series [5] (37 °C, in the presence of the tRNA (tRNA^Lys3 scaffold)), 24±2.4%; in series [5] (37 °C, no tRNA scaffold), 13±2.8%. For the same molecule, the “fluorescence when fused to the CGG repeat-containing RNA” value in series [4] was “essentially nonfluorescent”. In addition, in series [4] (flanked by 50 nt of RNA on both 5′ and 3′ ends, 0.1 μM RNA), the “brightness of flanked RNA relative to the same aptamer alone” value was determined as 20%. Besides, the “Percent Brightness (at 42° C.)” value in series [4] came out at 19%. In addition, in series [4] (25 °C), the “Relative Brightness (at 25° C.)” value is 1.0.

B3: Spinach1.2: Spinach mutant with perfect complementarity in stem 1 and stem loop 3, SEQ ID NO: 31 (nucleic acid)
chain: GACGCGACCGAATGAAATGGTGAAGGACGGGTCCAGCCGGCTGCTTCGGCAGCCGGCTTGTTGAGTAGAGTGTGAGCTCCGTAACTGGTCGCGTC
modifications: listed as DNA, chemistry not given here
For B3, the “melting temperature (Tm)” value in series [3] came to 38±0.3 °C. The percentage folded in series [5] (25 °C, no tRNA scaffold) came out at 27±2.1%; in series [5] (37 °C, no tRNA scaffold), 16±2.3%. For the same molecule, the “dimmer than Spinach” value in series [4] (1 μM RNA, 10 μM DFHBI, 25 °C) is 16%. Also, the “Percent Brightness (at 42° C.)” value in series [4] is listed as 41%. In addition, the “Relative Brightness (at 25° C.)” value in series [4] (25 °C) is 0.8.
